# Biological target: HA-Cdk2 (UniProt P24941)
# Experiment: co-IP; HeLa cells co-overexpressing wild-type or mutant Flag-p27Xic1 with HA-Cdk2; binding quantified against wild type (mean ± SEM)
reduction of binding against wild-type p27Xic1,increase of binding against wild-type p27Xic1,Substance
50%,–,Flag-p27Xic1 T68E (natural protein)
–,140%,Flag-p27Xic1 T68A (natural protein)

# — publication PMC4262734
